Test [1] concerns the target T1, N^α -AT (AAA1 N^α -acetyltransferase) (Saccharomyces cerevisiae, UniProt P07347+P12945).
T1 construct: isolates N^α -acetyltransferase by treating yeast cells with lyticase; endogenous in cells; host or cells: Saccharomyces cerevisiae cells (native enzyme)
T1 sequence (P12945 2-854): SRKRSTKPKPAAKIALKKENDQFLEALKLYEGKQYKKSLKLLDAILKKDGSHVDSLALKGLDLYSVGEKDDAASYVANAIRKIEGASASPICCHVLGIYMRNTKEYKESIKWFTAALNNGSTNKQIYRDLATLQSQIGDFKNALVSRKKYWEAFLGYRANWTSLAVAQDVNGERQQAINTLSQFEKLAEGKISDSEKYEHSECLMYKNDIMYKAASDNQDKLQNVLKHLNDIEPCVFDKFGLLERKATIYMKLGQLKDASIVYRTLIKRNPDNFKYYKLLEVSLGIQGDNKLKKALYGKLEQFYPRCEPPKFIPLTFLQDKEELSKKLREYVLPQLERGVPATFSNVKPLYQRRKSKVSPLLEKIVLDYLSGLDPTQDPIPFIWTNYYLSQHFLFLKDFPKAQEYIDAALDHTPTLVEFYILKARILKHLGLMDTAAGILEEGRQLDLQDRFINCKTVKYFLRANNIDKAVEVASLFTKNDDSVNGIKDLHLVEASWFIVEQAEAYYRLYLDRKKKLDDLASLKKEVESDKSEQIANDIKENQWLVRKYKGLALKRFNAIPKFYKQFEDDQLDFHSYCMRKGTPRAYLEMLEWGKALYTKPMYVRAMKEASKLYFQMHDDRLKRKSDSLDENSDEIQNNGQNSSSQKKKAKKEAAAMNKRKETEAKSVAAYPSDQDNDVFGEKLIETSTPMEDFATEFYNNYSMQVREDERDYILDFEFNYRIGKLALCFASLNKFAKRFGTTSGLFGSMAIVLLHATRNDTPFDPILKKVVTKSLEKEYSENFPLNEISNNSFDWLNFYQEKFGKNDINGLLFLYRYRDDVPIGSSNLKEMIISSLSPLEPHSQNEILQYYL
T1 sequence (P07347 1-238): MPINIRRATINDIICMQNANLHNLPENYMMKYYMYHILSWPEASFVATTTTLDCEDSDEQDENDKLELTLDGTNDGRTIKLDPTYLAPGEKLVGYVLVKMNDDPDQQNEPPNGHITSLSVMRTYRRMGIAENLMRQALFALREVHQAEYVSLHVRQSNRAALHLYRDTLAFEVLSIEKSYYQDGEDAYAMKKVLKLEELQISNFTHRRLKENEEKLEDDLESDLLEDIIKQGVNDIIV
The settings on record: purified enzyme; Lee et al., J. Biol. Chem. 263:14948-14955 (1988); cited from earlier work.

Test [2] deals with T1, N^α -AT (AAA1 N^α -acetyltransferase). Description: N^α-acetylation of synthetic peptides by AAA1 N^α-acetyltransferase ([3H]acetyl coenzyme A incorporation). It counts as biochemical. Also noted: concentration or dose not given beside the values. On the procedure: (§1) Aliquots of the lysate were added to 1.5 ml Eppendorf tubes containing a reaction mixture of 50 mM HEPES, pH 7.4, 150 mM KCl, 1 mM DTT, 25 μM[^3 H]acetyl coenzyme A (0.5 μCi) and 50 μM ACTH (1-24) with an adjusted final volume of 100 μl. The assay mixture was incubated at 30 C for 30 min. The reaction was stopped by adding 0.5 M acetic acid and chilled in an ice bath. […] The radioactivity in the control represented acetylation of endogenous compounds is subtracted from each sample determination. One unit of activity is defined as 1 pmol of acetyl residues incorporated into ACTH (1-24) under standard assay conditions.
(§2) This second N^α -acetyltransferase is a methionine N^α -acetyltransferase activity, and is designated as "M-N^α -AT." This second N^α -acetyltransferase is the subject of U.S. patent application of John A. Smith and Fang-Jen S. Lee, filed Oct. […] In order to compare the relative specificity and activity of the AAA1 N^α -acetyltransferase ("N^α -AT") of the present invention with the methionine N^α -acetyltransferase activity (M-N^α -AT) of U.S. patent application of John A. Smith and Fang-Jen S. Lee, filed Oct. […] These peptides were assessed for their ability to serve as substrates for the two enzymes. In Table 2, the effect of the amino terminal amino acid on activity is investigated; in Table 3, the effect of the penultimate amino terminal amino acid on activity is investigated.

The target of test [3] is T2, M-N^α -AT (methionine N^α -acetyltransferase) (Saccharomyces cerevisiae, UniProt Q06504).
T2 construct: endogenous in cells; host or cells: Saccharomyces cerevisiae aaa1 (AAA1-null) mutant
T2 sequence (Q06504 1-195): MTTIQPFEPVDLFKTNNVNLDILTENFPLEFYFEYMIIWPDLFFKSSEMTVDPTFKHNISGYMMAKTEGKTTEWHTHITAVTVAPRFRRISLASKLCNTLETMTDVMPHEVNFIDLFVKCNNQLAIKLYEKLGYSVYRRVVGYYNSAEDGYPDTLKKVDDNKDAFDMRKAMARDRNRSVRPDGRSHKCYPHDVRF
T2 sequence (Q12387 2-796 partner limits assumed): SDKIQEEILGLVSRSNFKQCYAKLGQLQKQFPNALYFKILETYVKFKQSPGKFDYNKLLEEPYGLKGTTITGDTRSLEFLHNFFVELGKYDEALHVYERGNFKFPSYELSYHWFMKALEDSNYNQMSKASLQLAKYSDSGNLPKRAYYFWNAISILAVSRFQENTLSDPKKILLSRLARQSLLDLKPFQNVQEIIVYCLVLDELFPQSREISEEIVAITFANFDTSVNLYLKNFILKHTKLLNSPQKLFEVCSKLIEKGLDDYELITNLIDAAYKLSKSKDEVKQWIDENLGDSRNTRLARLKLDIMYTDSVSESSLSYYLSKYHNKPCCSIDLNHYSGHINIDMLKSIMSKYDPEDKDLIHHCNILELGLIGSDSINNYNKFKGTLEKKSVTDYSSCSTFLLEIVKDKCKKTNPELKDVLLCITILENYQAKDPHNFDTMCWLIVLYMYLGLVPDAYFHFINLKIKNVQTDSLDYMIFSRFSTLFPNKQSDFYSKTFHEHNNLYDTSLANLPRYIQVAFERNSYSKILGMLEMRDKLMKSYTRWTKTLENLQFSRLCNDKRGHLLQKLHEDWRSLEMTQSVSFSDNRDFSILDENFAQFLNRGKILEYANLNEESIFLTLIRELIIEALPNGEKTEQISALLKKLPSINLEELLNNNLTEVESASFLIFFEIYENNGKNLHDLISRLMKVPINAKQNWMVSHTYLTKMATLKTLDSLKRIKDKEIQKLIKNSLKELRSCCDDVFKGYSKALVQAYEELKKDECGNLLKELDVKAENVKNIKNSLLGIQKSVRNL
As to the kind of experiment: N^α-acetylation of synthetic peptides by methionine N^α-acetyltransferase. It counts as biochemical. Details: concentration or dose not given beside the values. On the procedure:
as §1, §2

Setting [4] is: Table 2: relative activity for N^α-acetylation of synthetic peptide substrate, influence of the amino terminal residue.
Where [5] appears, read: Table 3: relative activity for N^α-acetylation of synthetic peptide substrate, influence of the penultimate amino terminal residue.

As to “SIPETQKGVIFYESHGKLEYKDIP (SIPETQKGVIFYESHGKLEYKDIP) [ALCOHOL DEHYDROGENASE I (1-24) (Yeast), synthetic peptide substrate, yeast alcohol dehydrogenase I residues 1-24, reference compound]”, the “transfer of an acetyl group to synthetic peptide substrates by purified yeast N^α-acetyltransferase” value (from here on “transfer of an acetyl group”) in test [1] is “effectively transfer an acetyl group”. In addition, the “Activity (%) (mean activity ± S.D.) N^α -AT” value in test [2] (setting [4]) and in test [2] (setting [5]) was 102 ± 5% in each case. Besides, the “Activity (%) (mean activity ± S.D.) M-N^α -AT” value in test [3] (setting [4]) and in test [3] (setting [5]) was 0% throughout.
In the case of “SNPETQKGVIFYESHGKLEYKDIP (SNPETQKGVIFYESHGKLEYKDIP)”, in test [2] (setting [5]), the “Activity (%) (mean activity ± S.D.) N^α -AT” value worked out at 116 ± 5%. Besides, the “Activity (%) (mean activity ± S.D.) M-N^α -AT” value in test [3] (setting [5]) is reported as 0%.
The like results for “SPPETQKGVIFYESHGKLEYKDIP (SPPETQKGVIFYESHGKLEYKDIP)” were, in that order, 0% and 0%.
The corresponding values for “SQPETQKGVIFYESHGKLEYKDIP (SQPETQKGVIFYESHGKLEYKDIP)” are 134 ± 7% and 0%.
As to “SRPETQKGVIFYESHGKLEYKDIP (SRPETQKGVIFYESHGKLEYKDIP)”, the “Activity (%) (mean activity ± S.D.) N^α -AT” value in test [2] (setting [5]) turned out to be 102 ± 5%. For the same substance, the “Activity (%) (mean activity ± S.D.) M-N^α -AT” value in test [3] (setting [5]) came to 0%.
On to “SSPETQKGVIFYESHGKLEYKDIP (SSPETQKGVIFYESHGKLEYKDIP)”, for which the “Activity (%) (mean activity ± S.D.) N^α -AT” value in test [2] (setting [5]) worked out at 140 ± 6%. Also, the “Activity (%) (mean activity ± S.D.) M-N^α -AT” value in test [3] (setting [5]) was determined as 0%.
For the substance “STPETQKGVIFYESHGKLEYKDIP (STPETQKGVIFYESHGKLEYKDIP)”, the “Activity (%) (mean activity ± S.D.) N^α -AT” value in test [2] (setting [5]) was 144 ± 8%. The “Activity (%) (mean activity ± S.D.) M-N^α -AT” value in test [3] (setting [5]) came to 0%.
The like results for “SVPETQKGVIFYESHGKLEYKDIP (SVPETQKGVIFYESHGKLEYKDIP)” were, in that order, 123 ± 7% and 0%.
The corresponding values for “SWPETQKGVIFYESHGKLEYKDIP (SWPETQKGVIFYESHGKLEYKDIP)” are 91 ± 5% and 0%.
The like results for “SYPETQKGVIFYESHGKLEYKDIP (SYPETQKGVIFYESHGKLEYKDIP)” were, in that order, 169 ± 8% and 0%.
In the case of “SYSMEHFRWGKPVGKKRRPVKVYP [ACTH (Human), reference compound]”, the “transfer of an acetyl group” value in test [1] was “effectively transfer an acetyl group”. Also, the “Activity (%) (mean activity ± S.D.) N^α -AT” value in test [2] (setting [4]) and in test [2] (setting [5]) was 100 ± 5% in each case. In addition, the “Activity (%) (mean activity ± S.D.) M-N^α -AT” value in test [3] (setting [4]) and in test [3] (setting [5]) was 0% in each case.
Consider “TIPETQKGVIFYESHGKLEYKDIP (TIPETQKGVIFYESHGKLEYKDIP)”, for which, in test [2] (setting [4]), the “Activity (%) (mean activity ± S.D.) N^α -AT” value is 103 ± 5%. The “Activity (%) (mean activity ± S.D.) M-N^α -AT” value in test [3] (setting [4]) is recorded as 0%.
In the case of “VIPETQKGVIFYESHGKLEYKDIP (VIPETQKGVIFYESHGKLEYKDIP)”, in test [2] (setting [4]), the “Activity (%) (mean activity ± S.D.) N^α -AT” value is listed as 69 ± 4%. For the same substance, the “Activity (%) (mean activity ± S.D.) M-N^α -AT” value in test [3] (setting [4]) was determined as 0%.
“WIPETQKGVIFYESHGKLEYKDIP (WIPETQKGVIFYESHGKLEYKDIP)”: the “Activity (%) (mean activity ± S.D.) N^α -AT” value in test [2] (setting [4]) is 0%. The “Activity (%) (mean activity ± S.D.) M-N^α -AT” value in test [3] (setting [4]) is on record as 0%.
For the substance “YIPETQKGVIFYESHGKLEYKDIP (YIPETQKGVIFYESHGKLEYKDIP)”, the “Activity (%) (mean activity ± S.D.) N^α -AT” value in test [2] (setting [4]) is recorded as 20 ± 2%. In addition, the “Activity (%) (mean activity ± S.D.) M-N^α -AT” value in test [3] (setting [4]) is reported as 0%.
“human superoxide dismutase (1-24): synthetic peptide substrate, residues 1-24 of human superoxide dismutase (ATKAVCVLKGDGPVQGIINFEQKE; UniProt P00441 2-25, looked up, fragment)”: the “transfer of an acetyl group” value in test [1] is recorded as “effectively transfer an acetyl group”.

These data come from patent US5210024A, “Isolation of strains of Saccharomyces cerevisiae having altered α-acetyltransferase activity” (priority 1991, dated 1993).
